Experimental data published in the nanobody polyreactivity screen of Harvey et al. (2022).

Experiment: yeast display, Sf9 membrane polyspecificity reagent, FACS + sequencing; frameworks hold sequencing errors
Method in brief: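 In a synthetic yeast display library (Saccharomyces cerevisiae BJ5465), nanobody expression was induced with galactose for 36–48 hours. FACS gates were set low and high (top ~1%) using anti-HA fluorescence for expression and streptavidin fluorescence for binding of the Sf9 membrane reagent. Each polyreactivity label is drawn from the gate of origin.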

Sequence	polyreactivity (PSR sort gate)
QVQLVESGGGLVQAGGSLRLSCAASGSIIVVYAMGWSRQAPGKERELVAAISWGIGSTYYADSVKGRFTISRDNAKNTVYLLMNILKPEETAVYYCAAVTDIVLYDYWGQGTQVTVSS	low polyreactivity
QVQLVESGGGLVQAGGSLRLSCAASGRIFGLNAMGWYRQAPGKEREIVAAIRWRGGSTYYADSVKGLFTISRDNANNNVYLLMNSLKPEDTAVYYCAADRNLGVSRYGYWGQGTQVNVSS	high polyreactivity
QVQLVESGGGLVQAGGTLRLSCAASGRTFYGNAMGWYRQAPGKERELVAVITRRGDTTYYADSVKGRFTISRDNAKNTVYLQMNSLKPEDTAVYYCAASYTGGYTPRQKYNRMGYWGQGTQVSVSS	high polyreactivity
QVQLEESGGGLVQAGGSLRLSCAASGITLAHNAMGWYRQAAGKERELVASITESGGSTYYADSVKGRFTISRDNAKNTVYLQMNRLKPEDTAVYYCAVRPTVGYWTVYYWGQGTQVTVSS	high polyreactivity
QVQLVESGGGLVQAGGSLRLSCAASGRTFYSYAIGWYREAPGKERELVASISSGGGTNYADSVKGRFTISRDNAKNTVYLQMNSLKPDDTAVYYCAAKYWIFYPYDYWGQGTQVTVSS	low polyreactivity
QVQLVESGGGLVQAGGSLRLSCAASGSTFRYNAMGWYRQAPGKVRELVASITWSGGDTYYADSVKGRFTISRDNAKNTVYLQMNSLKPEDTAVYYCNKRVHYIAGRGYDYWGQGNQVTVSS	low polyreactivity
QFQLVESGGGLVQAGGSLRLSCAASGRTFWYYDMGWYRQAPGKERELFATITSGGSTNYADSVKGRFTISRDNAKNTVYLQMNSLKPEDTAVYYCAAARWRWQLARDDYWGQGTQVTLSS	high polyreactivity
QVQLVESGGGLVQAGGSLRLSCAASGRTFVPYAMGWYRQAPGKEREFVAAISSRVGSTYYADSVKGRFTISRDNAKNTVYLQRNSLKPEDTAVYYCNAPFKPAGFYSAWKYDYWGQGTQVTVSS	low polyreactivity
QVQLVESGGGLVQAGGSLRLSCAASGSTFGYYAMGWYRQAPGKEREFVAAITSDGSSTYYADSVKGRFTISRDNAKNTVYLQMNSMKREDTAVYYCAADTFTYGGYKFYIFYWGQGTQVTVSS	high polyreactivity
QVQLVESGGGLVQAGGSLRLSCAASGSIFSGNAMGWYRQAPGKERELVADITFSGSSTYADSVKGRFTISRDNAKNTVYLQMNSLKPEDTAVYYCAKKRPGFLRYGSIGEFQYDYWGQGTQVTVSS	low polyreactivity
QVQLVESGGGLVQAGGSLRLSCAASGSTFVTNAMGWYRQAPGKERELVAAITSGAGTYYADSVKGRFTISRDNAKNTVYLQMNSLKPEDTAVYYCAARRYYSRGRYRFGYWGQGTQVTVSS	high polyreactivity
QVQLVESGGRLVQAGGSLRLSCAASGSILTYYTMGWYRQAPGKERELVARISWSGSRTYYADSVKGRFTISRDNAKNTVYLQMNSLKPEDTAVYYCAAKANWYANYDYWGQGTQVTVSS	high polyreactivity
QVQIVESGGGLVQAGGSLRLSCAASGRIFVVNDMGWYRPATGKERELVAAINSGGRTNYADSVKGRFTISRDNAKNTVDLQMNSLKREATAVYFCNAKRTGPWFLHVPVYYWGQGTQVTVSS	low polyreactivity
QVQLVESGGGLVQAGGSLRLSCAASGGTFATYAMGWYRQAPGKERELVAAISWSGGSTYYAVSVKGRFTISRDNAKNTVYLQMNSLKPEDTAVYYCAAASRAPSGLYYYWGQGTQVTVSS	high polyreactivity
QVQLVESGGGLVQAGGSLRLSCAASGRIFYKYAMGWYRPAPGKERELVASITRSGTSTDYADSVKGRFTISRDNAKNTVYLQMNSLKPEDTADYYCAKRFFSLNGYGYDYWGLGTQVTVSS	high polyreactivity
QVQLVESGGGLVQAGGSLRLSCASSVRTLAYNSRGCYRQATGKERELVASITSGGSTNYADSVKGRFTISRDNAKNTVYLQMNSLKPEDTAVYYCNKDGKYHRVLYDYWGQGTQVTVSS	low polyreactivity

Sequence	polyreactivity (PSR sort gate)
QVQLVESGGGLVQAGGSLRLSCGASGFTFQFYDRGGYRQAPGKEREFVATITWRAGSTYSADSVKGRFTISRDNAKNTVYLQMNSLKPEDTAVYYCNADYYRHSLDYDYVGYDYWGQGTQVTVSS	low polyreactivity
QVQLVESGGGLVQAGGSLRLSCAASGSIFRYYVMGWSRQAPGKERELVASISYSVGRTYYADSVKGRFTISRDNAKNTVYLQMNCLKPEDTAVYYCAADRYWPYYSAYYTSYRMDYWGQGTQVTVSS	high polyreactivity
QVQLVESGGGLVQAGGSLRLSCAASGRIFRRYAMGWYREAPGKERELVAAITASGGITYYADSVKGRFTISRDNAKNTVYLQMNSLKPEDTAVYYCAARGSSGYDYWGQGTQVTVSS	high polyreactivity
QVQLVESGGGLVQAGGSLRLTCAASGSIFPKNAIGWYRQAPGKERQLVAGITSRTGRTYYADSVKGRFTISRDNAENTVYLQMNSLKPEDTAVYYCAARNPSGKGRYDYWGQGSQVTVSS	high polyreactivity
QVQLVESGGGLVQAGGSLRLSSAASGRTFFRYAMGWYRQAPGKERELVAAITWSGGTTYYADSVKGRFTISRDNAKNTVYLQMNSLKPEDTAVYYCNGRGLWYRRVVTYGYWGQGTQVTVSS	high polyreactivity
QVQLVESGGGLVQAGGSLRLSCAASGLIFYDNMGWYRQAPGKERELVAAISSSGGSTSYADSVKGRFTISRDNAKNTVYLQMNSLKPEDTAVYYCAADVELWVFRGQQYDYWGQGTQVTVSS	low polyreactivity
QVQLVESGGGLVQAGGSLRLSCAASGRTFGTNGMGWYRQAPGKERELVAVITWTGGSTYYADSVKGRFTISRDNAKNTVYLQMNSLKPEDTAVYYCAAKYSHLGYNYWGQGTQVTVSS	high polyreactivity
QVQLVESGGGLVQAGGSLRLSCAASGRTSVPYAMGWYRQAPGKERELVAAITSGGSTYYADSVKGRFTISRDNAKNTVYLQMNSQKPEDTAVYYCAASQPHSAPYTASYGSWGQGTQVTVSS	low polyreactivity
QVQLLESGGGLVQAGGSLRLSCAASGSIIPYYAMGWYRQAPGKESELVAAITSGGGSTYYADSVKGRFTISRDNAMNSVYLQMNSLKPEDTAVYYCAAVLTSYYGGDYWGQGTQVTVSS	low polyreactivity
QVQLVESGGGLVQAGGSLRLSCAASGRIFQYYAMGWYRQAPGKERELVAAISSRGGSTTYADSVKGRFTISRDNAKNTVYLQMNSLKPEDTAVYYCARDWYYYPQYRQRYYYWGQGTQVTVSS	high polyreactivity
QVQLVESGGGLVQAGVSLRLSCAASGITLYRYAMGWYRQATGKERELVADISSGGGTTYYADSVKGRFTISRDNAKNTVYLQMNSLKPEDTAVYYCAADYGFRYPLYDYWGQGTQVTVSS	low polyreactivity
QVQLVESGGGLVQAGGTLRLSCAASGSIFRLNAMGWYRQPPGKERELVAAITSGGRTNYADSVKGRFTISRDNAKNTDYLQMNSLKPEDTAVYYCNARATAYGWRGDAGFEFDYWGQGTQVTVSS	low polyreactivity
QVQLVESGGGLVQAGGSLRLSCAASGSKFYTNVMGWYRQAPGKERELVARIDSGGSTNYADSVKGRFTISRDNAKNTVYLQMNSLKPEDTAVYYCAADWYIYDYWGQGTQVTVSS	low polyreactivity
QVQLVESGGGLVQAGGSLRLSCAASGFTFRYYVMGWYRQSPGKERELVAAISWSGGSTYYADSVKGRFTISRDNAKNTVYLQMNSLKPEDTAVYYCNAASLSKSDYWGQGTQVTVSS	high polyreactivity
QVQLVESGGGLVQAGGSLRLSCAASGRTLARNAMGWDIQGPGKERELVASINGRTTRTYYADSVKGRFTISRDNAKNTVYLQMNSLKPEDTAVYYCAAERKNKYDYWGQGTQVTVSS	high polyreactivity
